Data: patent US20040058857A1, “Method of treating cancer” (priority 2003, published 2004)
Numbered stars: 1 amine (or outer) side, 2 acyl side, 3 side chain; on linkers, the order of the positions; unused ones are H or OH. Square brackets hold non-standard residues; d marks the D form. Peptide text beside a SMILES is read from it. * marks the point of attachment. X1 = COc1cccc2c1C(=O)c1c(O)c3c(c(O)c1C2=O)C[C@@](O)(C(=O)CO)C[C@@H]3OC1CC(N*)C(O)C(C)O1; Glutaryl = O=C(CCCC(=O)[*:2])[*:1]; Hyp = O=C(O)[C@@H]1C[C@@H](O)CN1; Chg = N[C@H](C(=O)O)C1CCCCC1

Columns and labels:
clinical = conditions: male, human, in vivo, 225 mg/m2
Procedure: (§1) Compound B (as described in Example 2) is a peptide conjugate of doxorubicin (Dox) that is cleaved by PSA at prostate tumor cells to leucine-dox (Leu-dox) and Dox. Thirty-three patients with advanced hormone refractory prostate cancer were treated with Compound B. Nineteen patients were initially treated at escalating dose levels of 20 (n=1), 40 (n=3), 80 (n=4), 160 (n=2), 225 (n=6), and 315 mg/m^2 (n=2) in the phase I portion of the trial. An additional 14 patients were treated with 225 mg/m^2 with prednisone.

[1] = Clinical trial of Compound B: tolerability and dose limiting toxicity
Procedure: as §1

[2] = human, in vivo
Procedure: as §1

[3] = human, in vivo; remark: listed apart in the source
Procedure: as §1

For COc1cccc2c1C(=O)c1c(O)c3c(c(O)c1C2=O)C[C@@](O)(C(=O)CO)C[C@@H]3OC1CC(NC(=O)[C@H](CC(C)C)NC(=O)[C@H](CO)NC(=O)[C@H](CCC(N)=O)NC(=O)[C@@H](NC(=O)[C@H](CO)NC(=O)[C@H](C)NC(=O)[C@@H]2C[C@@H](O)CN2C(=O)CCCC(=O)O)C2CCCCC2)C(O)C(C)O1 (stereo partly drawn) [Compound B, [N-Glutaryl-(4-trans-L-Hyp)]-Ala-Ser-Chg-Gln-Ser-Leu-Dox] (Glutaryl-[Hyp]AS[Chg]QSL-X1; N-terminus and C-terminus assumed), the AUC (clinical) was 6 µM·h, the “patients with dose limiting neutropenia” value ([1]; 315 mg/m^2 dose level) was 2 patients and the tolerability ([1]; 33 patients with advanced hormone refractory prostate cancer) was “generally well tolerated”. For the same compound, the “recommended phase II dose” value ([1]; phase I dose escalation 20-315 mg/m^2) was 225 mg/m^2, the “metabolism in PK studies” value [2] was “metabolized to Leu-dox and Dox” and the “patients experiencing grade 3 fatigue” value [3] was “two”.
With COc1cccc2c1C(=O)c1c(O)c3c(c(O)c1C2=O)C[C@@](O)(C(=O)CO)C[C@@H]3O[C@H]1C[C@H](NC(=O)[C@@H](N)CC(C)C)[C@H](O)[C@H](C)O1 [Leu-Dox, leucine-dox] the “mean AUC” value ([2]; 225 mg/m2) was 4 µM·h.
